# Assay results taken from PMC3990635.
# B1: PAR1-Venus [mouse] / RGS2-Luciferase [not stated] (parent)
# chain 1: MQSAMFLAVQHDCRPMDKSAGSGHKSEEKREKMKRTLLKDWKTRLSYFLQNSSTPGKPKTGKKSKQQAFIKPSPEEAQLWSEAFDELLASKYGLAAFRAFLKSEFCEENIEFWLACEDFKKTKSPQKLSSKARKIYTDFIEKEAPKEINIDFQTKTLIAQNIQEATSGCFTTAQKRVYSLMENNSYPRFLESEFYQDLCKKPQITTEPHAT
# chain 2: SFFLRNPSENTFELVPLGDEEEEEKNESVLLEGRAVYLNISLPPHTPPPPFISEDASGYLTSPWLTLFMPSVYTIVFIVSLPLNVLAIAVFVLRMKVKKPAVVYMLHLAMADVLFVSVLPFKISYYFSGTDWQFGSGMCRFATAAFYGNMYASIMLMTVISIDRFLAVVYPIQSLSWRTLGRANFTCVVIWVMAIMGVVPLLLKEQTTRVPGLNITTCHDVLSENLMQGFYSYYFSAFSAIFFLVPLIVSTVCYTSIIRCLSSSAVANRSKKSRALFLSAAVFCIFIVCFGPTNVLLIVHYLFLSDSPGTEAAYFAYLLCVCVSSVSCCIDPLIYYYASSECQRHLYSILCCKESSDPNSCNSTGQLMPSKMDTCSSHLNNSIYKKLLA
# Variants of: B1
# Experiment: BRET assay in live COS7 cells
# Conditions: with RGS2-Luciferase; RGS2-Luc 35 ng; PAR1R205A-Ven 1.5 µg; no Gα11; no TFLLR; parent: 0.028; read off a plot
row,response,Variant
1,0.032,chain 2 SFFLRNPSENTFELVPLGDEEEEEKNESVLLEGRAVYLNISLPPHTPPPPFISEDASGYLTSPWLTLFMPSVYTIVFIVSLPLNVLAIAVFVLRMKVKKPAVVYMLHLAMADVLFVSVLPFKISYYFSGTDWQFGSGMCRFATAAFYGNMYASIMLMTVISIDAFLAVVYPIQSLSWRTLGRANFTCVVIWVMAIMGVVPLLLKEQTTRVPGLNITTCHDVLSENLMQGFYSYYFSAFSAIFFLVPLIVSTVCYTSIIRCLSSSAVANRSKKSRALFLSAAVFCIFIVCFGPTNVLLIVHYLFLSDSPGTEAAYFAYLLCVCVSSVSCCIDPLIYYYASSECQRHLYSILCCKESSDPNSCNSTGQLMPSKMDTCSSHLNNSIYKKLLA [chain 2 R164A]

# Same assay, conditions: with RGS2-Luciferase; RGS2-Luc 35 ng; PAR1R205A-Ven 1.5 µg; no Gα11; with TFLLR; parent: 0.048; read off a plot
row,response,Variant
1,0.037,chain 2 SFFLRNPSENTFELVPLGDEEEEEKNESVLLEGRAVYLNISLPPHTPPPPFISEDASGYLTSPWLTLFMPSVYTIVFIVSLPLNVLAIAVFVLRMKVKKPAVVYMLHLAMADVLFVSVLPFKISYYFSGTDWQFGSGMCRFATAAFYGNMYASIMLMTVISIDAFLAVVYPIQSLSWRTLGRANFTCVVIWVMAIMGVVPLLLKEQTTRVPGLNITTCHDVLSENLMQGFYSYYFSAFSAIFFLVPLIVSTVCYTSIIRCLSSSAVANRSKKSRALFLSAAVFCIFIVCFGPTNVLLIVHYLFLSDSPGTEAAYFAYLLCVCVSSVSCCIDPLIYYYASSECQRHLYSILCCKESSDPNSCNSTGQLMPSKMDTCSSHLNNSIYKKLLA [chain 2 R164A]

# Same assay, conditions: with RGS2-Luciferase; RGS2-Luc 35 ng; PAR1R205A-Ven 1.5 µg; with 0.5 µg untagged Gα11; no TFLLR; parent: 0.062; read off a plot
row,response,Variant
1,0.047,chain 2 SFFLRNPSENTFELVPLGDEEEEEKNESVLLEGRAVYLNISLPPHTPPPPFISEDASGYLTSPWLTLFMPSVYTIVFIVSLPLNVLAIAVFVLRMKVKKPAVVYMLHLAMADVLFVSVLPFKISYYFSGTDWQFGSGMCRFATAAFYGNMYASIMLMTVISIDAFLAVVYPIQSLSWRTLGRANFTCVVIWVMAIMGVVPLLLKEQTTRVPGLNITTCHDVLSENLMQGFYSYYFSAFSAIFFLVPLIVSTVCYTSIIRCLSSSAVANRSKKSRALFLSAAVFCIFIVCFGPTNVLLIVHYLFLSDSPGTEAAYFAYLLCVCVSSVSCCIDPLIYYYASSECQRHLYSILCCKESSDPNSCNSTGQLMPSKMDTCSSHLNNSIYKKLLA [chain 2 R164A]

# Same assay, conditions: with RGS2-Luciferase; RGS2-Luc 35 ng; PAR1R205A-Ven 1.5 µg; with 0.5 µg untagged Gα11; with TFLLR; parent: 0.086; read off a plot
row,response,Variant
1,0.048,chain 2 SFFLRNPSENTFELVPLGDEEEEEKNESVLLEGRAVYLNISLPPHTPPPPFISEDASGYLTSPWLTLFMPSVYTIVFIVSLPLNVLAIAVFVLRMKVKKPAVVYMLHLAMADVLFVSVLPFKISYYFSGTDWQFGSGMCRFATAAFYGNMYASIMLMTVISIDAFLAVVYPIQSLSWRTLGRANFTCVVIWVMAIMGVVPLLLKEQTTRVPGLNITTCHDVLSENLMQGFYSYYFSAFSAIFFLVPLIVSTVCYTSIIRCLSSSAVANRSKKSRALFLSAAVFCIFIVCFGPTNVLLIVHYLFLSDSPGTEAAYFAYLLCVCVSSVSCCIDPLIYYYASSECQRHLYSILCCKESSDPNSCNSTGQLMPSKMDTCSSHLNNSIYKKLLA [chain 2 R164A]
